Experimental data from publication PMC12861478, “Amino acid transporter CsBAT links GABA accumulation to flavonoid metabolism in Camellia sinensis” (Horticulture Research, 2025).

What was measured:
Assay in all cases: cells, lysate or membranes
[1] = substrate: CCNC(=O)CC[C@H](N)C(=O)O; details: transport; nitrogen-starved cells in nitrogen-free YNB
[2] = substrate: NC(=O)CC[C@H](N)C(=O)O; details: transport; nitrogen-starved cells in nitrogen-free YNB
[3] = substrate: NCCCC(=O)O; details: transport; nitrogen-starved cells in nitrogen-free YNB; 0.09375–8 mM GABA; H+-dependent
[4] = substrate: N[C@@H](CCC(=O)O)C(=O)O; details: transport; nitrogen-starved cells in nitrogen-free YNB

B1: CsBAT (Camellia sinensis) (protein)
chain: MGWHSHSHVQNGDSSLDTGHTRLHELGYKQELKRDLSVVSNFAFSFSIISVLTGITTLYNTGLNYGGPVVLVYGWLIAGVFTMIVGLSMAEICSSYPTSGGLYYWSAKLAGPSWAPFASWLTGWFNIVGQWAVTTSVDFSLAQLIQVIILLSTGGKNGGGYQASKYVVIGIHGGILLLHAIINSLPITWLSLFGQFAALWNLIGVFVLMILIPTVAKEKASAKFVFTFFNTDNGDGINSKVYIFVLGLLMSQYTLTGYDASAHMTEETKSADKNGPKGIISAIGISVIVGWGYLLGVTFAVTKIPNLLSENNDAGGYAIAEVFYLAFKNRYGNGIGGIICLGVVAVAIFFCGMSSITSNSRMAYAFSRDGAMPLSSVWHKVNKHEVPLNAVWLSAIIAFCMALTSLGSIVAFQAMVSIATIGLYIAYALPIFFRVTLARKSFTPGPFNLGRYGVLVGWIAVLWVATISVLFSLPVSYPITDQTLNYTPVAVGGLLILTVASWIFSARHWFKGPITNIDDVL
Which Km [1] does the source give for B1 here?
Its Km is 360 ± 30 µM.

What about the Km [2] of the same protein?
The Km was 400 ± 40 µM.

And the Km [3]?
Its Km is 290 ± 20 µM.

And the Km [4]?
The Km was 580 ± 50 µM.
